The results in this text go back to the RNAGym collection of RNA variant scans (doi:10.1073/pnas.2313332121).

B1: TPR 5TU (parent)
chain: GGAUCUUCUCGAUCUAACAAAAAAGACAAAUCUGCCACAAAGCUUGAGAGCAUCUUCGGAUGCAGAGGCGGCAGCCUUCGGUGGCGCGAUAGCGCCAACGUUCUCAACUAUGACACGCAAAACGCGUGCUCCGUUGAAUGGAGUUUAUCAUG

Fewer inactive variants are shown than the library holds.

The series covers variants of B1. As to the kind of experiment: polymerase ribozyme fitness, log enrichment relative to wild type (log ratio); higher = more active; in vitro selection for triplet polymerase activity. The gist of the method: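 PCR was used to build mutant libraries for each subunit of a heterodimeric triplet polymerase ribozyme, which were then transcribed. A single in vitro selection round, in triplicate, used a frozen incubation at −7 °C and recovered extended constructs by gel excision, streptavidin beads and RT-PCR. Fitness is the logarithm of genotype enrichment relative to wild-type enrichment, averaged over replicates with inverse-variance weights. The logarithm is base 2, and after Illumina sequencing only genotypes with ≥10 input reads and ≥1 read per output were kept.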
Take C18G U55A A98G A106G G112U A120U: the “polymerase ribozyme fitness (log ratio)” value is -3.87.

Turning to U9G A41U U53A C96A U102A A150U, the “polymerase ribozyme fitness (log ratio)” value was at most -4.2.

As to U31A A49C C99G C108G, the “polymerase ribozyme fitness (log ratio)” value is at most -4.2.

Regarding C18U C87U G94C C123A G141A, the “polymerase ribozyme fitness (log ratio)” value was at most -4.2.

Regarding C76G G83A U139A U146C U148C, the “polymerase ribozyme fitness (log ratio)” value was at most -4.2.

As to A16G U33G U55A C95U, the “polymerase ribozyme fitness (log ratio)” value is -3.89.

Consider A17G C132G, for which the “polymerase ribozyme fitness (log ratio)” value is -3.28.

In the case of A64G, the “polymerase ribozyme fitness (log ratio)” value was -2.27.

Turning to G42A C96A A122G A138G U145G, the “polymerase ribozyme fitness (log ratio)” value was at most -4.2.

C8A A26U: the “polymerase ribozyme fitness (log ratio)” value is -3.66.

Regarding C8U G67A U82G U90G C96A C105A C116A C125U U135A A147C U148G, the “polymerase ribozyme fitness (log ratio)” value was at most -4.2.

Regarding U13G G50U C93U, the “polymerase ribozyme fitness (log ratio)” value is -3.9.

Regarding G11C A19G A52G G68C A97G C132A U134C U144A, the “polymerase ribozyme fitness (log ratio)” value is at most -4.2.

As to A60C U61A C69G G74A U146G A150C, the “polymerase ribozyme fitness (log ratio)” value is at most -4.2.

For the variant U77G G92U, the “polymerase ribozyme fitness (log ratio)” value was -3.92.

For U77C C95U G141A, the “polymerase ribozyme fitness (log ratio)” value is at most -4.2.

Take A20U A29G G46C G50C A66U G83A: the “polymerase ribozyme fitness (log ratio)” value is at most -4.2.

As for C38U A52G G70U C85U G117U, the “polymerase ribozyme fitness (log ratio)” value is -3.27.

A29U A37U C72G C95U C114U G143U: the “polymerase ribozyme fitness (log ratio)” value was at most -4.2.

In the case of G11A U55A U77G G83C A142U, the “polymerase ribozyme fitness (log ratio)” value is at most -4.2.

Regarding G42U G59U G92U G126A U135A U144A, the “polymerase ribozyme fitness (log ratio)” value was at most -4.2.

In the case of A60U C85G, the “polymerase ribozyme fitness (log ratio)” value was -3.14.

Turning to C57U A91U, the “polymerase ribozyme fitness (log ratio)” value is -3.95.

Consider C38U G81A C87G C95U C96A A97G A138C G141U, for which the “polymerase ribozyme fitness (log ratio)” value was at most -4.2.

With A19C A47C C54A U56A C87A G100C G136A, the “polymerase ribozyme fitness (log ratio)” value is at most -4.2.

As to A29G A41C A47G C85G G92U U104G A137G G141U, the “polymerase ribozyme fitness (log ratio)” value was at most -4.2.

As for A17G C108U, the “polymerase ribozyme fitness (log ratio)” value was -3.09.

For G94C U127C, the “polymerase ribozyme fitness (log ratio)” value is -2.45.

As for C27U C76U G83A, the “polymerase ribozyme fitness (log ratio)” value is -1.55.

As for A97G A98U, the “polymerase ribozyme fitness (log ratio)” value is -0.253.

Turning to U13G A29U C38G G70U G117U A120U C149U, the “polymerase ribozyme fitness (log ratio)” value is at most -4.2.

On to A24U A49U C51U G70A C85U G112U C114A A122U U146C, for which the “polymerase ribozyme fitness (log ratio)” value is at most -4.2.

Regarding A30G G46C G50U C57U C118G, the “polymerase ribozyme fitness (log ratio)” value is at most -4.2.

As to A17G U31C C35G G86A A121U, the “polymerase ribozyme fitness (log ratio)” value was -4.19.

As for A17U C105A, the “polymerase ribozyme fitness (log ratio)” value is -1.28.

In the case of C27U U55A, the “polymerase ribozyme fitness (log ratio)” value was -0.901.

A3G C8G A22U A26G G46C C96U: the “polymerase ribozyme fitness (log ratio)” value is at most -4.2.

Take A24C A37C U53A A66U C95A C114G U135C U144A: the “polymerase ribozyme fitness (log ratio)” value is at most -4.2.

For the variant C54A G59A C87U, the “polymerase ribozyme fitness (log ratio)” value is -1.95.

Consider G48A G67U G84U C105G, for which the “polymerase ribozyme fitness (log ratio)” value was at most -4.2.

For U7A A29C A60U C76G C95U G133A G141A, the “polymerase ribozyme fitness (log ratio)” value is at most -4.2.

With C32G A39C A41C A52U G94C C116G, the “polymerase ribozyme fitness (log ratio)” value was at most -4.2.

Take A26C U53A G58A: the “polymerase ribozyme fitness (log ratio)” value is -2.74.

Consider C85A C118G, for which the “polymerase ribozyme fitness (log ratio)” value is -0.907.

Take A40U U55G G58A A97G: the “polymerase ribozyme fitness (log ratio)” value was -0.0754.

In the case of A3U C5G A21U C85U A122G G140U U144G, the “polymerase ribozyme fitness (log ratio)” value is at most -4.2.

Regarding A66G U78G U90C U135G, the “polymerase ribozyme fitness (log ratio)” value is at most -4.2.

U7G C96U: the “polymerase ribozyme fitness (log ratio)” value is -2.17.

As for C51U C79U, the “polymerase ribozyme fitness (log ratio)” value is -3.01.

With A98U C105U, the “polymerase ribozyme fitness (log ratio)” value was 0.54.

On to U33A C72U A73G G124U, for which the “polymerase ribozyme fitness (log ratio)” value was -3.23.

For the variant G140C U144G, the “polymerase ribozyme fitness (log ratio)” value was -3.51.

Regarding U15C C27U U53A A122G, the “polymerase ribozyme fitness (log ratio)” value is -1.39.

For G50U G84A U148G, the “polymerase ribozyme fitness (log ratio)” value was at most -4.2.

Turning to U13A A24U C87A C123A, the “polymerase ribozyme fitness (log ratio)” value was at most -4.2.

U44A U134A: the “polymerase ribozyme fitness (log ratio)” value is at most -4.2.

As for C85G A122U, the “polymerase ribozyme fitness (log ratio)” value was -1.53.

Regarding A16C C54G U77G C85U U135C, the “polymerase ribozyme fitness (log ratio)” value was at most -4.2.

Regarding U13A A23U G59A C87U, the “polymerase ribozyme fitness (log ratio)” value is at most -4.2.

On to C10G A39U G84A, for which the “polymerase ribozyme fitness (log ratio)” value was at most -4.2.

Consider C5A A89G C95G C132U, for which the “polymerase ribozyme fitness (log ratio)” value was -3.03.

For the variant A41C G84A, the “polymerase ribozyme fitness (log ratio)” value is -0.601.

C93A A150C: the “polymerase ribozyme fitness (log ratio)” value was -3.74.

For C69A C93U U102G A113U G117U U146A C149U, the “polymerase ribozyme fitness (log ratio)” value is at most -4.2.

For the variant U53A G83U A147C, the “polymerase ribozyme fitness (log ratio)” value was -1.91.

For the variant A12U G50A U53A C87U G136A, the “polymerase ribozyme fitness (log ratio)” value was at most -4.2.

Regarding U55G A91U A106G G117U, the “polymerase ribozyme fitness (log ratio)” value is -4.18.

For the variant C10A A23G C32A C38U G46U G59A A60G A97G, the “polymerase ribozyme fitness (log ratio)” value was at most -4.2.

With C10G A30G C38A G94U C125G U144C, the “polymerase ribozyme fitness (log ratio)” value was at most -4.2.

Consider A21U C87U C96U C131G, for which the “polymerase ribozyme fitness (log ratio)” value was at most -4.2.

For the variant A115U G136A, the “polymerase ribozyme fitness (log ratio)” value is -1.18.

In the case of G71C C87A G128U C131U G152U, the “polymerase ribozyme fitness (log ratio)” value was at most -4.2.

Turning to C96A U145A, the “polymerase ribozyme fitness (log ratio)” value came out at 0.431.

For C54U U77G A121C, the “polymerase ribozyme fitness (log ratio)” value was at most -4.2.

For C38G A66G U77G G83U A107U G128C A137U, the “polymerase ribozyme fitness (log ratio)” value was at most -4.2.

As to A40U U56A C85G C114G, the “polymerase ribozyme fitness (log ratio)” value is -3.79.

Regarding C96U G124U, the “polymerase ribozyme fitness (log ratio)” value is -0.372.

On to G59A A122G U148C, for which the “polymerase ribozyme fitness (log ratio)” value was -3.

For U15C U145G, the “polymerase ribozyme fitness (log ratio)” value came to 0.506.

Consider C35A G70A C79U G81A, for which the “polymerase ribozyme fitness (log ratio)” value was at most -4.2.

Regarding A20U G65C C85U A106U, the “polymerase ribozyme fitness (log ratio)” value was at most -4.2.

As for U135G A137U U139A U151G, the “polymerase ribozyme fitness (log ratio)” value is at most -4.2.

Take C35U A49G U53A C87U A89C C95U C132A A142C: the “polymerase ribozyme fitness (log ratio)” value is at most -4.2.
